Test results from PMC8154232.

Key:
p50-RHR homodimer = p50-RHR homodimer (mouse, UniProt P25799 39-363); test: NMR
p50-NTD = p50-NTD (mouse, UniProt P25799 39-245); test: NMR
Chain of p50-NTD (P25799 39-245): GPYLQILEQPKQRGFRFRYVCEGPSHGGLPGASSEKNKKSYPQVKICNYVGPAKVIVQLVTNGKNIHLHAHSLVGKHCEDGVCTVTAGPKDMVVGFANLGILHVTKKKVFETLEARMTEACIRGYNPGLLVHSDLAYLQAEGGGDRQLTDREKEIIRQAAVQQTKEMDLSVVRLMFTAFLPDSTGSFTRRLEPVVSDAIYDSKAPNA

Chain of p50-RHR homodimer (P25799 39-363): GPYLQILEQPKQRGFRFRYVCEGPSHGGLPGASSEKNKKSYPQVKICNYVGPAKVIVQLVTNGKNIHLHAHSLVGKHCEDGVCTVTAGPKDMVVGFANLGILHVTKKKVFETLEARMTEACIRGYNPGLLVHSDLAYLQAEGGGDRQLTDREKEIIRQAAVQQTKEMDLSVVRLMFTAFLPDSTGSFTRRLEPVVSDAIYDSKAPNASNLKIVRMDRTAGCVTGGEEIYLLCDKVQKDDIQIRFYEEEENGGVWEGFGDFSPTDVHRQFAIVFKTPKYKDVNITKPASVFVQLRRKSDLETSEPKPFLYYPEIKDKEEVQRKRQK

B1: full-kB (14-mer) (dsDNA)
DNA 1: TCGGGAATTCCCGA
DNA 2: TCGGGAATTCCCGA
Which results are given for B1?
binding result (p50-RHR homodimer): binds; binding result (p50-NTD): binds

B2: half-kB (18-mer) (dsDNA)
DNA 1: TTCGGGAAATAGAAACTC
DNA 2: GAGTTTCTATTTCCCGAA
Does B2 bind (p50-NTD)?
Result: binds

B3: half-kBL (21-mer) (dsDNA)
DNA 1: CTTCGGGAAATAGAAACTCTC
DNA 2: GAGAGTTTCTATTTCCCGAAG
Does B3 bind (p50-NTD)?
Result: binds
